A word on the stoichiometry N: it is a count of units in the complex or per binding partner.

The series deals with the molecule itself. The experiment in a line: SEC-MALS; Superose 6 increase 10/300 GL, room temperature, running buffer 50 mM Tris-HCl (pH 7.5), 250 mM NaCl, flow rate 0.4 mL/minute; MiniDAWN Treos. Background: In gel filtration, larger molecules generally elute earlier.

B1: TetR-family regulator Sco4385 (His-tagged) (natural protein, Streptomyces coelicolor M512, UniProt Q9K3V9 1-202, looked up)
chain: MNAADRTERVPKQDRSRATRQRLLEAAVACLAERGWAGSTVSVVAEHAGVSRGAAQHHFPTREDLFTAAVEYVAEERSIALRALFPEGAAADDRRAVVAALVDLYTGPLFRAALHLWVAASNEEQLRGRVTELEARVGRESHRIAVELLGADETRPGARETVQGLLDMARGLGLANLLTDDGARRERVVEQWARLLDAALAQ
notes: TetR-family regulator Sco4385 of Streptomyces coelicolor M512; Expressed from the vector pHis8 (plasmid pSW21); No tag cleavage is described; also called TFR Sco4385; TetR-type regulator Sco4385; source: E. coli BL21 DE3, purified (Ni-NTA chromatography, size exclusion chromatography)
For the protein B1, the “stoichiometry N” value amounted to 2.

Values taken from paper PMC12093943, “The TetR-like regulator Sco4385 and Crp-like regulator Sco3571 modulate heterologous production of antibiotics in Streptomyces coelicolor M512” (Applied and Environmental Microbiology, 2025).
